US20230203156A1 (published 2023)
Where two headings read alike, the source gives them in different places. Values belong to the binder of their own block, whether it stands above or below them.

Columns and labels:
[1] = target: cynomolgus MDR1 (Macaca fascicularis); test: FACS binding, 293T-cB1 cells
[2] = target: T1, human MDR1 (multidrug resistance protein 1) (UniProt P08183 1-1280); test: FACS binding, 293T-hB1 cells
human CD47 [3] = target: T2, human CD47 (human, UniProt Q08722 19-323); test: FACS binding, C6-hKT14 cells
cynomolgus CD47 = target: T3, cynomolgus CD47 (cynomolgus, UniProt A0A5F8AK49 19-323); test: FACS binding, C6-cKT14 cells
T3 chain: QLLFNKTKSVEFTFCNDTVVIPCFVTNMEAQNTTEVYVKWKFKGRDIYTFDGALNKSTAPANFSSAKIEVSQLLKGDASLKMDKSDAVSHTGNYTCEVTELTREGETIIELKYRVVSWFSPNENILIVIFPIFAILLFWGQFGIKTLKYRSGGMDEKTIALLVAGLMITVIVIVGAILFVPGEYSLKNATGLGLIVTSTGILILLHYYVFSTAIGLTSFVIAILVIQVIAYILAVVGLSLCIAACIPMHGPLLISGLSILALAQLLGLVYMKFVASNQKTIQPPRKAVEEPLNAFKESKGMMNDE

[4] = target: T1, human MDR1 (multidrug resistance …); test: FACS binding, 293T-hB1 cells; remark: listed apart in the source
[5] = target: T1, human MDR1 (multidrug resistance …); test: FACS binding, 293T cells expressing human MDR1
[6] = target: cynomolgus MDR1 (Macaca fascicularis); test: FACS binding, 293T-cB1 cells; remark: listed apart in the source
human CD47 [7] = target: T2, human CD47; test: cell binding (flow cytometry, C6 cells)
human CD47 [8] = target: T2, human CD47; test: FACS binding, C6 cells expressing human CD47

Chain of cynomolgus MDR1 (Macaca fascicularis) (chain, as listed by the source): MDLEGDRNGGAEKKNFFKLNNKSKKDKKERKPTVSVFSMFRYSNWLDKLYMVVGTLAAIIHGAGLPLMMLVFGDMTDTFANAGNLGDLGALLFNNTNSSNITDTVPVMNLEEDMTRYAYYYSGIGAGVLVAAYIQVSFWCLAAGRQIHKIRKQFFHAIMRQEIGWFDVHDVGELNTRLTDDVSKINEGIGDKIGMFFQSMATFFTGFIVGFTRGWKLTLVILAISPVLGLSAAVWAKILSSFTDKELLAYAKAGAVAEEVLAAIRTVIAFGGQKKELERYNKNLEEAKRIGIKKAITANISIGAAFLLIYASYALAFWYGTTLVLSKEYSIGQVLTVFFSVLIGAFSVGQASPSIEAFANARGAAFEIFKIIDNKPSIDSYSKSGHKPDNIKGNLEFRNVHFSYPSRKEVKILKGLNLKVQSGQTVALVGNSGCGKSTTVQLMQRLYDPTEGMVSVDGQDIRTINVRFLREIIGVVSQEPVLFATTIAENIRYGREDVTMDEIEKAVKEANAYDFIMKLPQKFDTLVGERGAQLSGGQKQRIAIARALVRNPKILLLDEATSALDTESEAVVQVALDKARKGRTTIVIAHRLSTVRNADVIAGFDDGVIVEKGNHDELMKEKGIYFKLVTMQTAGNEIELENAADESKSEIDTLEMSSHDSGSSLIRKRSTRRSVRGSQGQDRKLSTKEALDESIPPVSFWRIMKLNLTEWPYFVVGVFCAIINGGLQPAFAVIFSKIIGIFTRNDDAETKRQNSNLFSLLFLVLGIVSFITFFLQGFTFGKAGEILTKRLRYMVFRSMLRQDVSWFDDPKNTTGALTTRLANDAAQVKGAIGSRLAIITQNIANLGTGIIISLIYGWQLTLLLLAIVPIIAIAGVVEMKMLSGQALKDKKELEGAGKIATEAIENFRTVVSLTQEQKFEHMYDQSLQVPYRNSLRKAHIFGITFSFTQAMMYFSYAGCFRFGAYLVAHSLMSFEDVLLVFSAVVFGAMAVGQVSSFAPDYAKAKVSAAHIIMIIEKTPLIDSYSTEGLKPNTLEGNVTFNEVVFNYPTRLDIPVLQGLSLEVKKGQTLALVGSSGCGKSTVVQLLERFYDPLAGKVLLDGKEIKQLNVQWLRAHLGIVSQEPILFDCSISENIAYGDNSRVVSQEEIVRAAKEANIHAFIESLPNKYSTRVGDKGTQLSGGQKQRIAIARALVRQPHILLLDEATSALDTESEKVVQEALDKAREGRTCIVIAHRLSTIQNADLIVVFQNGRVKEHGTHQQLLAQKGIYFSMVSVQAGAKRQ

Kd [1]: 371 nM
Kd [2]: 188 nM
B1: B1.261 (antibody, V domains shown)
VH: QVQLKESGPGLVAPSQSLSITCTVSGFSLTSYGVHWVRQPPGKGLEWLVVIWSDGSTTYNSALKSRLSISKDNSKSQVFLKMNSLQIDDTAMYYCARHGRWLLQRGGAMDYWGQGTSVTVSS
VL: DVVMTQAPKFMSTSVGDRVSVTCRASQNVGSYIAWYQQKLGQSPKALIYSASYRCSGVPDRFTGSGAGTDFTLTIRNVQSEDLAEYFCQQYNSYPLTFGGGTKLEIK

EC50 (human CD47 [3]): 40 nM
EC50 (cynomolgus CD47): 83 nM
B2: B1.28DD/KT14KK/28 (antibody)
chain 1: EVKLVESGGGLVKPGGSLKLSCAASGFTFGLYTMSWVRQTPERRLEWVATISSGGSNTYYPDSVKGRFTISRDNAKNNLFLQMNSLRSEDTALYYCARYYRYDAWFAYWGQGTLVTVSS
chain 2: QVQLVQSGAEVKKPGASVKVSCKASGYTFTNYNMHWVRQAPGQRLEWMGTIYPGNDDTSYNQKFKDRVTITADTSASTAYMELSSLRSEDTAVYYCARGGYRAMDYWGQGTLVTVSS
chain 3: DVLLTQTPLSLPVSLGDQASISCRSSQNIVHSTGNTYLDWYLQKPGQSPKLLIYKVSNRFSGVPDRFSGSGSGTDFTLKISRVEAEDLGVYFCFQGSHIPRTFGGGTKLEIK

Kd [4]: 17 nM
EC50 [5]: 4.8 nM
Kd [6]: 97 nM
B3: B1.28 (antibody, V domains shown)
VH: B2 chain 1
VL: B2 chain 3

EC50 (human CD47 [7]): 26 nM
B4: KT14.B6H12hu scFv-B1.261.hu1 (bispecific antibody)
scFv: not shown
heavy: EVQLQESGPGLVKPSETLSLTCTVSGFSLTSYGVHWVRQPPGKGLEWLVVIWSDGSTTYNSALKSRLTISKDNSKNQVSLKLSSVTAADTAVYYCARHGRWLLQRGGAMDYWGQGTMVTVSSASTKGPSVFPLAPSSKSTSGGTAALGCLVKDYFPEPVTVSWNSGALTSGVHTFPAVLQSSGLYSLSSVVTVPSSSLGTQTYICNVNHKPSNTKVDKRVEPKSCDKTHTCPPCPAPELLGGPSVFLFPPKPKDTLMISRTPEVTCVVVDVSHEDPEVKFNWYVDGVEVHNAKTKPREEQYNSTYRVVSVLTVLHQDWLNGKEYKCKVSNKALPAPIEKTISKAKGQPREPQVCTLPPSREEMTKNQVSLSCAVKGFYPSDIAVEWESNGQPENNYKTTPPVLDSDGSFFLVSKLTVDKSRWQQGNVFSCSVMHEALHNHYTQKSLSLSPGK
light: DVQMTQSPSSLSASVGDRVTITCRASQNVGSYIAWYQQKPGKSPKALIYSASYRSSGVPSRFSGSGAGTDFTLTISSLQPEDFATYFCQQYNSYPLTFGGGTKLEIKRTVAAPSVFIFPPSDEQLKSGTASVVCLLNNFYPREAKVQWKVDNALQSGNSQESVTEQDSKDSTYSLSSTLTLSKADYEKHKVYACEVTHQGLSSPVTKSFNRGEC

Kd [1]: 114 nM
Kd [2]: 50 nM
B5: B1.261.huH2(VH3)-huL1 (antibody, V domains shown)
VH: EVQLVESGGGLIQPGGSLRLSCAVSGFSLTSYGVHWVRQPPGKGLEWLVVIWSDGSTTYNSALKSRLTISKDNSKNTVYLQMNSLRAEDTAVYYCARHGRWLLQRGGAMDYWGQGTMVTVSS
VL: DVQMTQSPSSLSASVGDRVTITCRASQNVGSYIAWYQQKPGKSPKALIYSASYRSSGVPSRFSGSGAGTDFTLTISSLQPEDFATYFCQQYNSYPLTFGGGTKLEIK

EC50 (human CD47 [8]): 1.4 nM
B6: KT14.5F9hu scFv-B1.28.hu13 (bispecific antibody)
scFv: not shown
heavy: EVQLVESGGGLVKPGGSLRLSCAASGFTFGLYTMSWVRQAPGKGLEWVATISSGGSNTYYPDSVKGRFTISRDNAKNSLYLQMNSLRAEDTAVYYCARYYRYDAWFAYWGQGTLVTVSSASTKGPSVFPLAPSSKSTSGGTAALGCLVKDYFPEPVTVSWNSGALTSGVHTFPAVLQSSGLYSLSSVVTVPSSSLGTQTYICNVNHKPSNTKVDKRVEPKSCDKTHTCPPCPAPELLGGPSVFLFPPKPKDTLMISRTPEVTCVVVDVSHEDPEVKFNWYVDGVEVHNAKTKPREEQYNSTYRVVSVLTVLHQDWLNGKEYKCKVSNKALPAPIEKTISKAKGQPREPQVCTLPPSREEMTKNQVSLSCAVKGFYPSDIAVEWESNGQPENNYKTTPPVLDSDGSFFLVSKLTVDKSRWQQGNVFSCSVMHEALHNHYTQKSLSLSPGK
light: EVVLTQSPATLSLSPGERATLSCRSSQNIVHSTGNTYLDWYQQKPGQSPRLLIYKVSNRFSGVPARFSGSGSGTDFTLTISSLEPEDFAVYYCFQGSHIPRTFGGGTKLEIKRTVAAPSVFIFPPSDEQLKSGTASVVCLLNNFYPREAKVQWKVDNALQSGNSQESVTEQDSKDSTYSLSSTLTLSKADYEKHKVYACEVTHQGLSSPVTKSFNRGEC

EC50 (human CD47 [8]): 1.5 nM
B7: KT14.B6H12hu scFv-B1.28.hu13 (bispecific antibody)
scFv: not shown
heavy: B6 heavy
light: B6 light
